Consider 15 molecules from patent US20210023171A1 (published 2021).

Where a chain is given by its changes, count along the chain named. Read-outs that look alike come from different tables or passages of the source. No end group written: not given here. *: point of attachment. DOTA = O=C(O)CN1CCN(CC(=O)O)CCN(CC(=O)*)CCN(CC(=O)O)CC1

Assay [1] deals with T1, αvβ3 integrin on cells (U87MG glioblastoma cells; K562-αvβ3 cells) (UniProt P06756 31-1048; P05106 27-788).
T1 construct: whole, on cells; also called cell surface αvβ3 integrin
T1 sequence (P06756 31-1048, chain 1 of 2): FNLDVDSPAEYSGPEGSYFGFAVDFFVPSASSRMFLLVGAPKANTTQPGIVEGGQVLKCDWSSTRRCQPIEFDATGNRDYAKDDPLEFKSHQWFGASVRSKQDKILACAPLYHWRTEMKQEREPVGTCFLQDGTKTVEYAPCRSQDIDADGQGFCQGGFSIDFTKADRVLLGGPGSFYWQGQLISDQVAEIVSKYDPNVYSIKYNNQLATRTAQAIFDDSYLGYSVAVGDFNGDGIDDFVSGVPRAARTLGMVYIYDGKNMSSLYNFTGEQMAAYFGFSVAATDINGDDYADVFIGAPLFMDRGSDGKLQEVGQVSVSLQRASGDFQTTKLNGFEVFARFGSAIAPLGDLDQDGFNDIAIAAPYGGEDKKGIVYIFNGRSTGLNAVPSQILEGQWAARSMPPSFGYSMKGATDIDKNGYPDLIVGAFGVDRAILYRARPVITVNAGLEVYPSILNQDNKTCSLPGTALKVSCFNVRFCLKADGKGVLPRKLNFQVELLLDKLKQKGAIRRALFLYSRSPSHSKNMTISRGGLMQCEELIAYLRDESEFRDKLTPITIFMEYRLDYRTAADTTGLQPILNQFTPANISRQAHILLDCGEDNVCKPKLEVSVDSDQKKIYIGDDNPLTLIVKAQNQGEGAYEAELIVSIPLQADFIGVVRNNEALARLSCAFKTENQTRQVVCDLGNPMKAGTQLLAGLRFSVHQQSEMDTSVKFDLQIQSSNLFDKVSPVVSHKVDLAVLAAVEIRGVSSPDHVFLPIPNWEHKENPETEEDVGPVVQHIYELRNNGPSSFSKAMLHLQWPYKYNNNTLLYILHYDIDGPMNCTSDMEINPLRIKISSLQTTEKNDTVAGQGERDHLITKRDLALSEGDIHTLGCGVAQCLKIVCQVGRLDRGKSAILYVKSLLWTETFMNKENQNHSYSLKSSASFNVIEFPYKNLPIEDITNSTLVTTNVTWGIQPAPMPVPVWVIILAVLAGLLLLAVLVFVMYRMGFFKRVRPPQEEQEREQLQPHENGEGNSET
T1 sequence (P05106 27-788, chain 2 of 2): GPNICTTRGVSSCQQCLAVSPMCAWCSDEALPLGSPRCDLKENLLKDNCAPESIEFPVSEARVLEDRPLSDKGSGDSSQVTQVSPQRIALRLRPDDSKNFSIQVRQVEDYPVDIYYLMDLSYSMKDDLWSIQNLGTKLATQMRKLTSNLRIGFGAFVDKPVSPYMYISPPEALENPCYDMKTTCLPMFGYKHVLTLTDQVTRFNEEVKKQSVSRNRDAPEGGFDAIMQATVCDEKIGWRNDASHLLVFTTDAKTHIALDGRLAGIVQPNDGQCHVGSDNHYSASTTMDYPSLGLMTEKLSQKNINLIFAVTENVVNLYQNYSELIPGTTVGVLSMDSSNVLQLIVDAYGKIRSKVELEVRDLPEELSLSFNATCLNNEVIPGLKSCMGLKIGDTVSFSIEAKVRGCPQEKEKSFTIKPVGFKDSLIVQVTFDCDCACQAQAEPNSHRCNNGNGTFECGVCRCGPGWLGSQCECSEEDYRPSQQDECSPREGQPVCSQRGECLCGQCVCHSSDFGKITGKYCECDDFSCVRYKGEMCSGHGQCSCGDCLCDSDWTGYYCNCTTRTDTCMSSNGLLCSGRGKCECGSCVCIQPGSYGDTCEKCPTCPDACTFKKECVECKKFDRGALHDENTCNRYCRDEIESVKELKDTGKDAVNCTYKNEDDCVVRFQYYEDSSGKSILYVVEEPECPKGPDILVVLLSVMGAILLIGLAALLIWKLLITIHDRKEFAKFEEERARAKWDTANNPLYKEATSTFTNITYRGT
As to the kind of experiment: approximate value quoted with the imaging results; U87MG competition assay presumed.

Assay [2] has as its target T2, αvβ3 integrin (soluble / detergent-solubilized) (UniProt P06756 31-1048; P05106 27-788).
T2 construct: also called integrin αvβ3; soluble αvβ3 integrin
As to the kind of experiment: competition with ^125I-echistatin on plate-coated detergent-solubilized integrin.

Assay [3] addresses αvβ5 integrin (soluble / detergent-solubilized) (UniProt P06756 31-1048; P18084 24-799). The description is as above.
Assay [4] has as its target α5β1 integrin (detergent-solubilized) (UniProt P08648 42-1049; P05556 21-798). The description is as above.
Assay [5] addresses αiibβ3 integrin (soluble / detergent-solubilized) (UniProt P08514 32-1039; P05106 27-788). The description is as above.
The target of assay [6] is T2, αvβ3 integrin (soluble / …). The assay is described as follows: yeast display flow cytometry estimate; integrin not given.
Assay [7] shares this target. The assay is described as follows: yeast display, flow cytometry, 50 nM integrin, gross estimate.
For assay [8], the target named is T1, αvβ3 integrin on cells (U87MG …). As to the kind of experiment: competing off ^125I-echistatin, U87MG cells.
For assay [9] the target is unchanged. As to the kind of experiment: competition on U87MG cells against 20 nM recombinant FLAG/His 7C, anti-FLAG flow cytometry. On the technique in general: In flow cytometry, cells or beads pass a laser one at a time.
Assay [10] shares this target. The assay is described as follows: competition with ^125I-echistatin on U87MG cells.
Assay [11] shares this target. The assay is described as follows: competition with ^125I-echistatin on U87MG cells (also express αvβ5, α5β1); unlabeled peptide.
Assay [12] shares this target.
Assay [13] shares this target. As to the kind of experiment: cell-based or functional assay.
For assay [14] the target is unchanged. The assay is described as follows: cell-based or functional assay. The source holds these as a separate data set.
Assay [15] addresses T3, αiibβ3 integrin on K562 cells stably transfected with αiibβ3 (UniProt P08514 32-1039; P05106 27-788).
T3 construct: whole, on cells; also called K562-αiibβ3; K562-αiiβ3
As to the kind of experiment: titration on K562-αiibβ3 cells up to 5 µM, not saturated.

The target of assay [16] is T1, αvβ3 integrin on cells (U87MG …). The assay is described as follows: direct equilibrium titration on U87MG cells, anti-His flow cytometry.
For assay [17] the target is unchanged. As to the kind of experiment: direct equilibrium titration on K562-αvβ3 cells, anti-His flow cytometry.
Assay [18] has the same target. As to the kind of experiment: competition of synthetic 7C by recombinant 7C on U87MG cells, performed analogously.
Assay [19] shares this target. As to the kind of experiment: direct equilibrium titration on U87MG cells.

T2 sequence (P06756 31-1048, chain 1 of 2): as the sequence (P06756 31-1048, chain 1 of 2) above
T2 sequence (P05106 27-788, chain 2 of 2): as the sequence (P05106 27-788, chain 2 of 2) above
α5β1 integrin (detergent-solubilized), sequence (P08648 42-1049, chain 1 of 2): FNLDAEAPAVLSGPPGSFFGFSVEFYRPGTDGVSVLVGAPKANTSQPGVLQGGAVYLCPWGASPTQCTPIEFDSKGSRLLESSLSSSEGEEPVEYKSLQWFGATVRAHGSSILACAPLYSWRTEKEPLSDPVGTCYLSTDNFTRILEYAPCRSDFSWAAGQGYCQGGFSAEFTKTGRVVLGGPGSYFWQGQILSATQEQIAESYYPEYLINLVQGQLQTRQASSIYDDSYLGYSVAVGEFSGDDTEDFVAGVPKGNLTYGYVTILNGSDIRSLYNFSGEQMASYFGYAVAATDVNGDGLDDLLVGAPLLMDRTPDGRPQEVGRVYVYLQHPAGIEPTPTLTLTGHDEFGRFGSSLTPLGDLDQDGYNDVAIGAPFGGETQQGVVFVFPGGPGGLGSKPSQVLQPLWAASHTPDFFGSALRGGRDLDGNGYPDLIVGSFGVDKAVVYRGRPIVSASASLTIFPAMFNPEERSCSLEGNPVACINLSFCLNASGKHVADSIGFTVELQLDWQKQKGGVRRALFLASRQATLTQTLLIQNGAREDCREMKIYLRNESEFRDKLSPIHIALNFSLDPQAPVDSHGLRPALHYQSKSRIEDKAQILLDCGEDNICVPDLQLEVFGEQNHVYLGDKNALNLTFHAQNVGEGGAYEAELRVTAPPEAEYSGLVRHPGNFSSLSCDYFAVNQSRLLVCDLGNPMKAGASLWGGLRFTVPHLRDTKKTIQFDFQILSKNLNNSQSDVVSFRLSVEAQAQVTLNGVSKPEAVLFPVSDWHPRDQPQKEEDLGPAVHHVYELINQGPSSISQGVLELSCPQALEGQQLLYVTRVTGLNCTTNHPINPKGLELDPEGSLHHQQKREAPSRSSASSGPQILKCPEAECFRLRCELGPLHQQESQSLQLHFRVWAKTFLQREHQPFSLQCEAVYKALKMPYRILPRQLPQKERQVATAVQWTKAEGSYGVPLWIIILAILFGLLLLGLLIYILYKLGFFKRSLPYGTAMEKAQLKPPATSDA
α5β1 integrin (detergent-solubilized), sequence (P05556 21-798, chain 2 of 2): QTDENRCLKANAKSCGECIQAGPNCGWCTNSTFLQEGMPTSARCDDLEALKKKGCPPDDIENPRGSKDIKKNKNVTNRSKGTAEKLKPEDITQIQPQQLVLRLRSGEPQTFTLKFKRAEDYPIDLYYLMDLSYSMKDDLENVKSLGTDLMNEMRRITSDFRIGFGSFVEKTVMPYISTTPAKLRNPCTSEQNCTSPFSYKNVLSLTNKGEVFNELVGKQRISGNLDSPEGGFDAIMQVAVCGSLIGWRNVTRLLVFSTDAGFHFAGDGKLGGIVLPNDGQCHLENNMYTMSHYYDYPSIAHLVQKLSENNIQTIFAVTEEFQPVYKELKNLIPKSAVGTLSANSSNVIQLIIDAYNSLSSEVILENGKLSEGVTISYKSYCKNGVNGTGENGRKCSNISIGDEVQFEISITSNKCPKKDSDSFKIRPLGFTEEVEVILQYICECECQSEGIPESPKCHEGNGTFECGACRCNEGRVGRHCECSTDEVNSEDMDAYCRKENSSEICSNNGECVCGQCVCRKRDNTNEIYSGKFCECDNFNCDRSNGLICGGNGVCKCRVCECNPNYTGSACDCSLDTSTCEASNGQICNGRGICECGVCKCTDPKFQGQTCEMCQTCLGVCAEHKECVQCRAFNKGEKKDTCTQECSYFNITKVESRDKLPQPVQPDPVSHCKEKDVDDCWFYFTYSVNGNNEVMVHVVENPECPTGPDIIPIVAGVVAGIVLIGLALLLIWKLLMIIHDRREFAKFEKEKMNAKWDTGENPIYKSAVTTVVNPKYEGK
αvβ5 integrin (soluble / detergent-solubilized), sequence (P06756 31-1048, chain 1 of 2): as the sequence (P06756 31-1048, chain 1 of 2) above
αvβ5 integrin (soluble / detergent-solubilized), sequence (P18084 24-799, chain 2 of 2): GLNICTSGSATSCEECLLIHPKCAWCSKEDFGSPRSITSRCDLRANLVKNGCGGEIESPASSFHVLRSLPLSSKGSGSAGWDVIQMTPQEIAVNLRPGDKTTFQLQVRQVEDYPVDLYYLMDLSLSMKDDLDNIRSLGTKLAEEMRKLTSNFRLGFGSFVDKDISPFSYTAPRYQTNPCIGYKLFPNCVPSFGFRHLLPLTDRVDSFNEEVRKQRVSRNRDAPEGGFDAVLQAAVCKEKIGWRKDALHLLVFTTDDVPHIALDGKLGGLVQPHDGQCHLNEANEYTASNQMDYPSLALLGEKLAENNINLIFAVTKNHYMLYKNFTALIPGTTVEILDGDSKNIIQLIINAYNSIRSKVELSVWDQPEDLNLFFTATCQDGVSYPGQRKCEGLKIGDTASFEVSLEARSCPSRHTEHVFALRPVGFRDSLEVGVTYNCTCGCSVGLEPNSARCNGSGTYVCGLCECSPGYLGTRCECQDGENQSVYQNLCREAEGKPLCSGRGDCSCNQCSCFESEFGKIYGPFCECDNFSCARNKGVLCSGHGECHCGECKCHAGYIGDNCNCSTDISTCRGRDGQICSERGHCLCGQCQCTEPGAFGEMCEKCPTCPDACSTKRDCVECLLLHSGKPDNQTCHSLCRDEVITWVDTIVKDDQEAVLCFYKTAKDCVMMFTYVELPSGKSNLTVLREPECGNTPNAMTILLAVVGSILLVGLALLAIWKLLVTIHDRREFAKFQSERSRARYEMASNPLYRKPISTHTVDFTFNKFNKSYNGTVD

Take {DOTA}-GCVTGRGDSPASSCSQDSDCLAGCVCGPNGFCG (cysteine pairing not given here) [DOTA-conjugated FN-RGD2]: the IC50 (as a rule, the concentration at which inhibition is half-maximal) in assay [1] is about 400 nM.
{DOTA}-GCVTGRDGSPASSCSQDSDCLAGCVCGPNGFCG (also: cystine-knot disulfides, pairing not given here) [DOTA-conjugated FN-RDG2]: the binding result in [2], in [3], in assay [4] and in assay [5] was “no binding” throughout.
For the molecule GCVTGRGDSPASSCKQDSDCLAGCVCGPNGFCG (also called FN-RGD; RDG-EETI #3) [RGD-EETI #3 (yeast-displayed)], in assay [6], the Kd (commonly the constant that tells how readily two partners part at equilibrium) is 100 to 200 nM.
Consider GCTIGRGDWAPSECKQDSDCLAGCVCGPNGFCG [1.5B (yeast-displayed EETI-based variant)], for which the Kd in assay [7] was about 50 nM.
Regarding GCHVGRGDWAPEECKQDSDCQAGCVCGPNGFCG [2.5A (yeast-displayed EETI-based variant)], in [7], the Kd was about 50 nM.

B1: synthetic AgRP peptide 7C (without epitope tags) (peptide)
chain: GCVRLHESCLGQQVPCCDPAATCYCYGRGDNDLRCYCR
notes: also called AgRP Clone 7C; Agouti peptide 7C
As to B1, the values for the IC50 in assay [8] and in assay [9] were 23 nM and 22 nM, respectively.

B2: FN-RDG (EETI-based polypeptide with a scrambled RDG sequence, negative control) (peptide)
chain: GCVTGRDGSPASSCSQDSDCLAGCVCGPNGFCG
notes: Inferred; also called scrambled FN-RDG; FN-RDG2
On to B2, for which the binding result in assay [10] is on record as “no binding”; in assay [2], “no binding (tested: 50 nM)”; in [3] it was “no binding (tested: 50 nM)”; in assay [4], “no binding (tested: 50 nM)”; in assay [5], “no binding (tested: 50 nM)”.
In assay [1], {DOTA}-GCPQGRGDWAPTSCSQDSDCRAGCVCGPNGFCG (cysteine pairing not given here, also called Cu-DOTA-knottin 2.5D) [DOTA-conjugated knottin peptide 2.5D] had an IC50 of about 20 nM.
Take GCPQGRGDWAPTSCKQDSDCRAGCVCGPNGFCG [2.5D (yeast-displayed EETI-based variant)]: the Kd in assay [7] is about 50 nM.

B3: Miniprotein 2.5D (synthetic, soluble) (peptide)
chain: GCPQGRGDWAPTSCSQDSDCRAGCVCGPNGFCG
notes: also called knottin peptide 2.5D; RGD-miniprotein 2.5D
Turning to B3, the IC50 was determined as 19 nM in [10] and 16 nM in assay [11].
QCESGPCCRNCKFLKEGTICKRARGDDMDDYCNGKTCDCPRNPHKGPAT (ligand, ends and bridges not checked; cysteine pairing not given here) [echistatin (unlabeled)] yielded an IC50 in assay [12] of 4.9 nM. Also, in assay [13], the “U87MG cell adhesion to vitronectin, IC50” value was 5.8 nM. For the same molecule, the “adhesion (IC50; nM) of K562-αvβ3 cells to vitronectin-coated wells” value (shortened to “adhesion (IC50; nM) of K562-αvβ3 cells”) in assay [14] is 3.2 nM.
Take GCTGRGDSPASSKCKQDSDCLAGCVCGPNGFCG [RGD-EETI #2 (yeast-displayed)]: in [6], the “affinity relative to RGD-EETI #3” value is about 0.5 fold.

B4: recombinant AgRP peptide 7C (FLAG and hexahistidine tagged) (peptide)
chain: DYKDDDDKGCVRLHESCLGQQVPCCDPAATCYCYGRGDNDLRCYCRHHHHHH
Consider B4, for which, in assay [14], the “adhesion (IC50; nM) of K562-αvβ3 cells” value was determined as 12 nM. The values for the Kd in assay [15], in [16] and in [17] were over 100 nM, 1.8 nM and 2.4 nM, respectively. Besides, the concentration for half-maximal inhibition (IC50) in [18] is 23 nM.

B5: recombinant engineered AgRP peptide 7A (FLAG and hexahistidine tagged) (peptide)
chain: B4 chain with Y34S, R42V
notes: also called 7A (5E); 5E
Turning to B5, the “adhesion (IC50; nM) of K562-αvβ3 cells” value in [14] amounted to 61 nM. In addition, the “fold improvement over the worst binder, 6C” value in assay [19] turned out to be 17 fold. Also, the Kd is over 100 nM in assay [15], 0.78 nM in assay [16] and 0.89 nM in assay [17].
With {DOTA}-GCPRPRGDNPPLTCSQDSDCLAGCVCGPNGFCG (cysteine pairing not given here) [DOTA-conjugated knottin peptide 2.5F], the IC50 in [1] is about 20 nM.
